# Assay results: PMC11703348, “Role of Aspartate 42 and Histidine 79 in the aiPLA2 activity and oligomeric status of Prdx6 at low pH” (Research Square, 2024)
# Positions count from the first letter of the chain named. In names and notes the source's numbering stands.
# B1: Peroxiredoxin 6 (Prdx6), recombinant rat wild type (enzyme, UniProt O35244 1-224, looked up)
# chain: MPGGLLLGDEAPNFEANTTIGHIRFHDFLGDSWGILFSHPRDFTPVCTTELGRAAKLAPEFAKRNVKLIALSIDSVEDHFAWSKDINAYNGAAPTEKLPFPIIDDKDRDLAILLGMLDPAEKDEKGMPVTARVVFIFGPDKKLKLSILYPATTGRNFDEILRVVDSLQLTASNPVATPVDWKKGESVMVLPTLPEEEAKQLFPKGVFTKELPSGKKYLRYTPQP
# notes: Peroxiredoxin 6 (Prdx6), rat, wild type; cloned between the NdeI and SapI sites of pTYB1; no extra residues remain after intein self-cleavage; also called Wt Prdx6; WT Prdx6
# B2: H79A Prdx6 (His79 to Ala mutant of rat Prdx6) (enzyme, UniProt O35244 1-224, looked up)
# chain: B1 chain with H79A
# notes: Peroxiredoxin 6 (Prdx6), rat, with His79 replaced by Ala (QuikChange mutagenesis); Same construct as m1 with the point mutation; also called His79A; His79-Ala
# B3: D42A Prdx6 (Asp42 to Ala mutant of rat Prdx6) (enzyme, UniProt O35244 1-224, looked up)
# chain: B1 chain with D42A
# notes: Peroxiredoxin 6 (Prdx6), rat, with Asp42 replaced by Ala (QuikChange mutagenesis); the methods print it once as Asp43Ala; Same construct as m1 with the point mutation; also called Asp42A; Asp42-Ala
# Key:
# [1] = target: the molecule itself; test: dynamic light scattering; pH 7.4; protein 2 mg/ml, 25 °C; hydrodynamic diameter and volume fraction (Zetasizer)
# [2] = target: the molecule itself; test: native gel or EMSA; native-PAGE at neutral pH: 50 mM Tris-HCl, 100 mM NaCl pH 7.4, running buffer 35 mM Hepes, 43 mM imidazole pH 7.4; continuous 7.5% gel, non-reducing, non-denaturing; markers BSA and ferritin
# [3] = target: the molecule itself; test: native gel or EMSA; native-PAGE at low pH: 40 mM Na-acetate pH 4, running buffer 30 mM beta alanine, 20 mM lactic acid pH 3.8, reverse polarity; continuous 7.5% gel, non-reducing, non-denaturing; markers BSA and ferritin
Protein,stoichiometry N [1],stoichiometry N [2],stoichiometry N [3]
B1,2,–,–
B2,–,2,~2
B3,–,2,~2
